Test results: PMC10119177 (2023)

B1: recombinant CEACAM1 N-terminal domain with His tag (rCEACAM1-N-HIS), wildtype [human] / IgI3 domain of R28 (R28-IgI3), wildtype [Streptococcus pyogenes] (parent complex)
chain 1: AQLTTESMPFNVAEGKEVLLLVHNLPQQLFGYSWYKGERVDGNRQIVGYAIGTQQATPGPANSGRETIYPNASLLIQNVTQNDTGFYTLQVIKSDLVNEEATGQFHVY
chain 2: TAPTLTVTPEQQTVKVDEDITFTVTVEDENEVELGLDDLKAKYENDIIGARVKIKYLTKEPNKKVMEVTIMKATLADKGAITFTAKDKAGNQAEPKTVTINVLPLKDSNEPKLPSTGGS

Variants of: B1
Experiment: Dynabead binding assay (Dynabeads coated with R28-IgI3, DB.R28IgI3, incubated with rCC1-N); parent: 33; read off a plot

How did the response turn out when chain 2 E44A was run?
The response was about 40.

For chain 2 I48A, which response is on record?
The response was about 5.5.

Which response does the source give for chain 2 K40A here?
Its response is about 7.

How did the response turn out when chain 2 I54A was run?
The response was about 19.

How did the response turn out when chain 2 Y56A was run?
Its response is about 7.

Which response does the source give for chain 2 K59A here?
Its response is about 21.

For chain 2 I47A, which response is on record?
The response was about 5.5.

Variants of: B1
Experiment: Dynabead binding assay (Dynabeads coated with R28-IgI3, DB.R28IgI3, incubated with rCC1-N variants); parent: 23; read off a plot

With chain 1 Q90A as the variant, how does the response read?
The response was about 10.

chain 1 Q45A was tested. Which response did it give?
The response was about 20.

How did the response turn out when chain 1 L96A was run?
The response was about 6.

For chain 1 F30A, which response is on record?
Its response is about 5.5.

For chain 1 N98A, which response is on record?
Its response is about 90.

chain 1 V97A was tested. Which response did it give?
Its response is about 100.

How did the response turn out when chain 1 I92A was run?
The response was about 5.
